Measured values taken from paper PMC3554717.

Molecular target: endogenous CSK (Jurkat) (UniProt P41240)
Experiment: GST pull-down, CSK immunoblot densitometry
Settings: Jurkat cell lysates (3×10^8 cells divided into five tubes); GST alone lane 0.00; parent: 84.98

response (arbitrary units): -0
Substance: LYP P1 motif (Arg620) fused to GST R620W
